# Experimental data: patent publication US12448462 (dated 2025)
# T1: MUC1 (human, UniProt P15941 1039-1148)
# T1 chain: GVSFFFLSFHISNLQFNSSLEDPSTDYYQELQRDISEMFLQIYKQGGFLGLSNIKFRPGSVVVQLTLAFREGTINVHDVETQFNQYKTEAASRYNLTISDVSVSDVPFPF
# Molecular target: T1, MUC1
# Experiment: flow
row,Binder,EC50 [nM]
1,"anti-Muc1 T4E3 Fab (Fab, V domains shown) VH: QVQLVQSGGGLVQPGGSLRLSCAASGFTFDDYAMHWVRQAPGKGLEWVSGISWNSGSIGYADSVKGRFTISRDNAKNSLYLQMNSLRAEDTALYYCAKDIGSGSYYNYYYGMDVWGQGTTATISS VL: SSELTQDPAVSVALGQTVRITCQGDSLRSYYASWYQQKPGQAPVLVIYGKNSRPSGIPDRFSGSNSGSTASLTITGAQAEDEADYYCNSRDRYGNSLVIFGGGTKLTVL",16
2,"T4E3 scFv (scFv, V domains shown) VH: QVQLVQSGGGLVQPGGSLRLSCAASGFTFDDYAMHWVRQAPGKGLEWVSGISWNSGSIGYADSVKGRFTISRDNAKNSLYLQMNSLRAEDTALYYCAKDIGSGSYYNYYYGMDVWGQGTTATISS VL: SSELTQDPAVSVALGQTVRITCQGDSLRSYYASWYQQKPGQAPVLVIYGKNSRPSGIPDRFSGSNSGSTASLTITGAQAEDEADYYCNSRDRYGNSLVIFGGGTKLTVL",7.48
